± gives the uncertainty stated by the source.
Assay: self-splicing fitness, log relative to wild type (ln ratio); higher = more splicing; Tetrahymena group I intron in knt gene, E. coli kanamycin selection, DiMSum; sequences stand for … in CUCUCU…GGAGGGAAAAGUUAUCAGGCAUGCACCUGGUAGCUAGUCUUUAAACCAAUAGAUUGCAUCGGUUUAAAAGGCAAGACCGUCAAAUUGCGGGAAAGGGGUCAACAGCCGUUCAGUACCAAGUCUCAGGGGAAACUUUGAGAUGGCCUUGCAAAGGGUAUGGUAAUAAGCUGACGGACAUGGUCCUAACCACGCAGCCAAGUCCUAAGUCAACAGAUCUUCUGUUGAUAUGGAUGCAGUUCACAGACUAAAUGUCGGUCGGGGAAGAUGUAUUCUUCUCAUAAGAUAUAGUCGGACCUCUCCUUAAUGGGAGCUAGCGGAUGAAGUGAUGCAACACUGGAGCCGCUGGGAACUAAUUUGUAUGCGAAAGUAUAUUGAUUAGUUUUGGAGUACUCGUGGUCG
How it was run: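 Library with all eight P1ex-region intron nucleotides randomised, intron inside the knt kanamycin-resistance gene on pET-22b(+), in E. coli BL21(DE3). Cells grew overnight at 37°C or 30°C on LB agar with or without 25 μg/mL kanamycin (plus 100 μg/mL carbenicillin, 50 μM IPTG, 0.2% rhamnose), in six replicate transformations. Pooled colonies were amplicon-sequenced on Illumina HiSeq 2500. DiMSum fitness is the error-weighted combination of wild-type-normalised replicate fold changes, kanamycin versus none.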

Row | Sequence | self-splicing fitness (ln) (30 °C) | self-splicing fitness (ln) (37 °C)
1 | ACGAAGCAAUAUUACGUAUC | -4.38 ± 0.27 | -2.66 ± 0.22
2 | ACGAAGCAAUAUUACGUCGG | -1.67 ± 0.1 | -1.65 ± 0.11
3 | ACGAAGCAAUAUUACGUGUU | -2.94 ± 0.07 | -1.81 ± 0.07
4 | ACGAAGCAAUAUUACGUUAA | -3.25 ± 0.22 | -2.09 ± 0.14
5 | ACGAAGCAAUAUUACGUUCG | -1.3 ± 0.083 | -0.906 ± 0.11
6 | ACGAAGCAAUAUUACGUUGU | -2.95 ± 0.14 | -1.86 ± 0.12
7 | ACGCAGCAAUAUUACGACUC | -0.833 ± 0.08 | 0.365 ± 0.096
8 | ACGCAGCAAUAUUACGAGGU | -3.55 ± 0.17 | -2.27 ± 0.16
9 | ACGCAGCAAUAUUACGAUGG | -1.82 ± 0.097 | -1.59 ± 0.13
10 | ACGCAGCAAUAUUACGCAAG | -2.25 ± 0.081 | -0.638 ± 0.091
11 | ACGCAGCAAUAUUACGCACU | -0.177 ± 0.08 | 0.479 ± 0.11
12 | ACGCAGCAAUAUUACGCAGA | -2.74 ± 0.18 | -1.92 ± 0.12
13 | ACGCAGCAAUAUUACGCAUC | -2.1 ± 0.11 | -1.47 ± 0.16
14 | ACGCAGCAAUAUUACGCCUG | -2.79 ± 0.2 | -2.42 ± 0.33
15 | ACGCAGCAAUAUUACGCGCC | -2.5 ± 0.15 | -3.01 ± 0.27
16 | ACGCAGCAAUAUUACGCUAG | -3.42 ± 0.22 | -2.33 ± 0.24
17 | ACGCAGCAAUAUUACGCUGA | -0.604 ± 0.095 | -0.835 ± 0.11
18 | ACGCAGCAAUAUUACGCUGG | -2.25 ± 0.12 | -1.48 ± 0.14
19 | ACGCAGCAAUAUUACGCUGU | -2.71 ± 0.14 | -3.83 ± 0.28
20 | ACGCAGCAAUAUUACGGCGU | -3.68 ± 0.16 | -2.23 ± 0.14
21 | ACGCAGCAAUAUUACGGGGA | -2.28 ± 0.091 | -2.14 ± 0.1
22 | ACGCAGCAAUAUUACGGGGU | -4.68 ± 0.22 | -2.34 ± 0.12
23 | ACGCAGCAAUAUUACGUACA | -2.03 ± 0.11 | -0.547 ± 0.12
24 | ACGCAGCAAUAUUACGUAGG | -2.12 ± 0.096 | -2.86 ± 0.13
25 | ACGCAGCAAUAUUACGUGCC | -1.7 ± 0.11 | -0.959 ± 0.12
26 | ACGCAGCAAUAUUACGUGGG | -3.55 ± 0.13 | -2.37 ± 0.12

Row | Sequence | self-splicing fitness (ln) (30 °C) | self-splicing fitness (ln) (37 °C)
27 | ACGCAGCAAUAUUACGUGUG | -2.86 ± 0.11 | -2.31 ± 0.12
28 | ACGCAGCAAUAUUACGUGUU | -4.19 ± 0.1 | -2.85 ± 0.14
29 | ACGCAGCAAUAUUACGUUCA | -1.96 ± 0.11 | -0.844 ± 0.094
30 | ACGCAGCAAUAUUACGUUGG | -2.94 ± 0.082 | -1.91 ± 0.096
31 | ACGGAGCAAUAUUACGAGCU | -3.64 ± 0.46 | -2.24 ± 0.32
32 | ACGGAGCAAUAUUACGAGUC | -3.83 ± 0.33 | -2.64 ± 0.38
33 | ACGGAGCAAUAUUACGCAUC | -2.6 ± 0.17 | -2.03 ± 0.21
34 | ACGGAGCAAUAUUACGCCGG | -1.09 ± 0.38 | –
35 | ACGGAGCAAUAUUACGCGCG | -2 ± 0.15 | -0.429 ± 0.14
36 | ACGGAGCAAUAUUACGCGGC | -3.42 ± 0.44 | –
37 | ACGGAGCAAUAUUACGCUCC | – | -1.28 ± 0.37
38 | ACGGAGCAAUAUUACGGAGU | -2.53 ± 0.27 | -1.55 ± 0.18
39 | ACGGAGCAAUAUUACGGAUC | -3.09 ± 0.17 | -2.79 ± 0.26
40 | ACGGAGCAAUAUUACGGCGC | 0.159 ± 0.44 | -0.221 ± 0.45
41 | ACGGAGCAAUAUUACGGCUC | -3.6 ± 0.3 | -2.87 ± 0.48
42 | ACGGAGCAAUAUUACGGGUU | -3.25 ± 0.16 | -3.6 ± 0.3
43 | ACGGAGCAAUAUUACGGUAG | – | -2.33 ± 0.31
44 | ACGGAGCAAUAUUACGGUCC | -3.38 ± 0.36 | -1.39 ± 0.34
45 | ACGGAGCAAUAUUACGGUUG | -3.93 ± 0.31 | -2.22 ± 0.18
46 | ACGGAGCAAUAUUACGUCAG | -3.38 ± 0.19 | -1.69 ± 0.18
47 | ACGGAGCAAUAUUACGUCCU | -1.85 ± 0.13 | -1.27 ± 0.15
48 | ACGGAGCAAUAUUACGUCGA | -2.03 ± 0.38 | -2.07 ± 0.28
49 | ACGGAGCAAUAUUACGUCUA | -3.96 ± 0.46 | -1.3 ± 0.16
50 | ACGGAGCAAUAUUACGUCUG | -1.94 ± 0.19 | 0.013 ± 0.14
51 | ACGGAGCAAUAUUACGUGAC | -2.68 ± 0.28 | -2.16 ± 0.42
52 | ACGGAGCAAUAUUACGUUAU | – | -2.94 ± 0.23

Row | Sequence | self-splicing fitness (ln) (30 °C) | self-splicing fitness (ln) (37 °C)
53 | ACGUAGCAAUAUUACGAAGA | -2.85 ± 0.41 | -0.644 ± 0.16
54 | ACGUAGCAAUAUUACGACGC | -0.35 ± 0.25 | -0.563 ± 0.3
55 | ACGUAGCAAUAUUACGAGGG | -3.91 ± 0.26 | -2.92 ± 0.26
56 | ACGUAGCAAUAUUACGAGUC | -3.3 ± 0.4 | -3.2 ± 0.35
57 | ACGUAGCAAUAUUACGCCAA | -2.3 ± 0.38 | -1.5 ± 0.37
58 | ACGUAGCAAUAUUACGCGUG | -1.73 ± 0.094 | -0.962 ± 0.11
59 | ACGUAGCAAUAUUACGCUAG | -2.85 ± 0.12 | -0.713 ± 0.13
60 | ACGUAGCAAUAUUACGCUCC | -2.71 ± 0.36 | -0.259 ± 0.22
61 | ACGUAGCAAUAUUACGGAGC | -3.42 ± 0.22 | -2.39 ± 0.26
62 | ACGUAGCAAUAUUACGGGCA | -0.955 ± 0.099 | -0.418 ± 0.12
63 | ACGUAGCAAUAUUACGGGGA | -1.93 ± 0.1 | -1.83 ± 0.099
64 | ACGUAGCAAUAUUACGUGAU | -3.19 ± 0.14 | -1.63 ± 0.12
65 | ACGUAGCAAUAUUACGUGGC | -2.94 ± 0.17 | -2.98 ± 0.26
66 | ACGUAGCAAUAUUACGUUAU | -3.76 ± 0.17 | -2.34 ± 0.16
67 | ACGUAGCAAUAUUACGUUCG | -2.69 ± 0.12 | -0.757 ± 0.12
68 | ACGUAGCAAUAUUACGUUUC | -4.47 ± 0.25 | -2.87 ± 0.19
69 | ACGUAGCAAUAUUACGUUUU | -2.63 ± 0.12 | -1.15 ± 0.12
70 | ACUAAGCAAUAUUACGAAAA | -2.26 ± 0.33 | -1.72 ± 0.36
71 | ACUAAGCAAUAUUACGAAGC | -3.67 ± 0.21 | -3.25 ± 0.22
72 | ACUAAGCAAUAUUACGAAGG | -1.51 ± 0.087 | -0.966 ± 0.12
73 | ACUAAGCAAUAUUACGACAG | -0.663 ± 0.085 | -0.322 ± 0.11
74 | ACUAAGCAAUAUUACGACGC | -0.258 ± 0.11 | -0.0244 ± 0.12
75 | ACUAAGCAAUAUUACGAGAU | -3 ± 0.15 | -2.45 ± 0.2
76 | ACUAAGCAAUAUUACGAGCG | -0.928 ± 0.084 | 0.115 ± 0.14

From the supplement of paper PMC7877785
